The target of assay [1] is T1, Karyopherinβ2 (Kapβ2) (human, UniProt Q92973-2 1-890).
T1 sequence (looked up): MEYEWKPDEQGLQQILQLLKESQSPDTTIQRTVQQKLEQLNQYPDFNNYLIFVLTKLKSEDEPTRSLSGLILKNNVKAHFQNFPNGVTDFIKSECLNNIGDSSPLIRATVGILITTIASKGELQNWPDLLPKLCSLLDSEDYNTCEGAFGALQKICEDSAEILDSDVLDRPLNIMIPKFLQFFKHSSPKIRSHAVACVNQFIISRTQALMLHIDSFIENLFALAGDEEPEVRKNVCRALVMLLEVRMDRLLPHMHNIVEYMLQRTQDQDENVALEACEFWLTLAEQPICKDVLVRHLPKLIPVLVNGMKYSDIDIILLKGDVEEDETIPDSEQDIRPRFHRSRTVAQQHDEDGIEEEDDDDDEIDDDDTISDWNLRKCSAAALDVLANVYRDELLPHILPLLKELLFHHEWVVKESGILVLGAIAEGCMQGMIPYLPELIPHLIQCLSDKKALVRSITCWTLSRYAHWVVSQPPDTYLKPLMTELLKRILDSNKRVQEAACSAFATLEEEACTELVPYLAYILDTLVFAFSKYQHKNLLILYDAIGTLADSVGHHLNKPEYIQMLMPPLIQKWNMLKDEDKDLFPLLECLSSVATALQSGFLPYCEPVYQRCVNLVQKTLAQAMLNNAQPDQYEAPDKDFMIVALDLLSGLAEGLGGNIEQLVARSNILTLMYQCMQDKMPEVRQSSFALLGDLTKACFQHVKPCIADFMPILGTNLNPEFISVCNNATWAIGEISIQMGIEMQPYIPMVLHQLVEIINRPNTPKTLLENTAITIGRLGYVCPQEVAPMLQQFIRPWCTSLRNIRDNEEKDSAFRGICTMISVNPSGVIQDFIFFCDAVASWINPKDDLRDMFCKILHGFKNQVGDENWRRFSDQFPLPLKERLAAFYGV
Briefly: chemical tongue.

Assay [2] addresses T2, mCherry fusion LC-domain of FUS (residue 2–214, mCh:FUS-LC) (UniProt P35637 2-214).
T2 sequence (looked up): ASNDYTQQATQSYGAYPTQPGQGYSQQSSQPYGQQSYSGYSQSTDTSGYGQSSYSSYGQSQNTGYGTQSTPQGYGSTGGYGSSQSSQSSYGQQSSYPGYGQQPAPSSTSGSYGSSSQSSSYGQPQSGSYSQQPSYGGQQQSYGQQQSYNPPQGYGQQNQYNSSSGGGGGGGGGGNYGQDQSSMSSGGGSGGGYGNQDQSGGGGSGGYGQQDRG
In words: hydrogel binding assay.

The target of assay [3] is T1, Karyopherinβ2 (Kapβ2). In words: hydrogel binding assay.
Assay [4] addresses T1, Karyopherinβ2 (Kapβ2). Briefly: AUC.
The target in assay [5] is T1, Karyopherinβ2 (Kapβ2). Briefly: SEC.
Assay [6] has as its target GTP-bound Ran (Q69L) (UniProt P62826 1-216, Q69L). In words: pull-down.

The values below come from doi:10.1101/2024.07.03.601791 (bioRxiv, 2024).

“And” between values parts separate entries of the source, which are not always exact repeats. Equal values may be shown once.

With GRGRGRGRGRGRGRGRGRGRGRGRGRGRGRGRGRGRGRGR [GR20], the binding result in assay [1] was “binds”.

Turning to PRPRPRPRPRPRPRPRPRPRPRPRPRPRPRPRPRPRPRPR [GFP fusion 20 repeats of PR (GFP:PR20)], the binding result in assay [2] and in assay [3] was “binds” each time.

Regarding PRPRPRPRPRPRPRPRPRPRPRPRPRPRPRPRPRPRPRPR [PR20], the binding result in assay [1] is recorded as “binds”.

With PRPRPRPRPRPRPRPRPRPRPRPRPRPRPRPRPRPR [maltose-binding protein (MBP)-PR18], the “stoichiometry N” value in assay [4] was 1 and ≥ 2; in assay [5], 2.

B1: GST-Kapβ2 (natural protein)
chain: MEYEWKPDEQGLQQILQLLKESQSPDTTIQRTVQQKLEQLNQYPDFNNYLIFVLTKLKSEDEPTRSLSGLILKNNVKAHFQNFPNGVTDFIKSECLNNIGDSSPLIRATVGILITTIASKGELQNWPDLLPKLCSLLDSEDYNTCEGAFGALQKICEDSAEILDSDVLDRPLNIMIPKFLQFFKHSSPKIRSHAVACVNQFIISRTQALMLHIDSFIENLFALAGDEEPEVRKNVCRALVMLLEVRMDRLLPHMHNIVEYMLQRTQDQDENVALEACEFWLTLAEQPICKDVLVRHLPKLIPVLVNGMKYSDIDIILLKGDVEEDETIPDSEQDIRPRFHRSRTVAQQHDEDGIEEEDDDDDEIDDDDTISDWNLRKCSAAALDVLANVYRDELLPHILPLLKELLFHHEWVVKESGILVLGAIAEGCMQGMIPYLPELIPHLIQCLSDKKALVRSITCWTLSRYAHWVVSQPPDTYLKPLMTELLKRILDSNKRVQEAACSAFATLEEEACTELVPYLAYILDTLVFAFSKYQHKNLLILYDAIGTLADSVGHHLNKPEYIQMLMPPLIQKWNMLKDEDKDLFPLLECLSSVATALQSGFLPYCEPVYQRCVNLVQKTLAQAMLNNAQPDQYEAPDKDFMIVALDLLSGLAEGLGGNIEQLVARSNILTLMYQCMQDKMPEVRQSSFALLGDLTKACFQHVKPCIADFMPILGTNLNPEFISVCNNATWAIGEISIQMGIEMQPYIPMVLHQLVEIINRPNTPKTLLENTAITIGRLGYVCPQEVAPMLQQFIRPWCTSLRNIRDNEEKDSAFRGICTMISVNPSGVIQDFIFFCDAVASWINPKDDLRDMFCKILHGFKNQVGDENWRRFSDQFPLPLKERLAAFYGV
Consider B1, for which, in assay [6], the binding result was “binds”.
